B1: TPL0674_03_F05 (scFv, V domains shown)
VH: EVQLVQSGAEVKKPGASVRVSCKASGYSITNYGISWVRQAPGQGLEWMGWINTYNGNTNYAQKFQGRVTMTRDTSISTAYMELSRLRSDDTAVYYCARDHPYRGMDVWGQGTLVTVSS
VL: SYELTQDPAVSVALGQTVRITCQGDSLRSYYASWYQQKPGQAPVLVIYGKNNRPSGIPDRFSGSSSGNTASLTITGAQAEDEADYYCNSRDSSGNHPHVVFGGGTKLTVL
notes: also called scFv TPL0674_03_F05
B2: TPL0674_03_A04 (scFv, V domains shown)
VH: QVQLVQSGSELKKPGASVKVSCKASGYTFTSYAMNWVRQAPGQGLEWMGWINTNTGNPTYAQGFTGRFVFSLDTSVSTAYLQISSLKAEDTAVYYCARDQGGDRHFGYWGQGTTVTVSS
VL: QSELTQPPSASGTPGQRVTISCSGSSSNIGSHRVNWYQQLPGTAPKLLIYSNYHRPAGVPDRFSASKSGTSASLAISGLQSEDEADYYCAAWDDSLNGYVFGTGTQLTVL
notes: also called scFv TPL0674_03_A04

Assays:
[1] = target: T1, recombinant SMase from H. lepturus (Hemiscorpius lepturus, UniProt A0A1L4BJ98); assay: BLI; ForteBio Octet RED96, […]; 1:1 binding model, […]; triplicate; conditions: both partners purified
T1 construct: also called rHl; recombinant sphingomyelinase from Hemiscorpius lepturus; source: E. coli BL21(DE3), purified (HisPur Ni-NTA)
T1 sequence (A0A1L4BJ98 whole entry, looked up): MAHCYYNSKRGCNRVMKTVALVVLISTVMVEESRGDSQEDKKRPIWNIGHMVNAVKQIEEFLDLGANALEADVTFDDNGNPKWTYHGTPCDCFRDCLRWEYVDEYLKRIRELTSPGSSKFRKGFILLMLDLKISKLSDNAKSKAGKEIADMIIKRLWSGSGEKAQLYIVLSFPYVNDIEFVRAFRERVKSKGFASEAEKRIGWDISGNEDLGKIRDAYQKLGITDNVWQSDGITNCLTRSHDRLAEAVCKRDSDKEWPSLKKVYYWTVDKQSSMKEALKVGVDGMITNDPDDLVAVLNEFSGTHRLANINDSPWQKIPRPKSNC

[2] = target: T2, recombinant SMase from L. rufescens (Loxosceles rufescens, UniProt C0JB02); assay: as above; conditions: both partners purified
T2 construct: also called rLr; recombinant sphingomyelinase from Loxosceles rufescens; source: E. coli BL21(DE3), purified (HisPur Ni-NTA)
T2 sequence (C0JB02 whole entry, looked up): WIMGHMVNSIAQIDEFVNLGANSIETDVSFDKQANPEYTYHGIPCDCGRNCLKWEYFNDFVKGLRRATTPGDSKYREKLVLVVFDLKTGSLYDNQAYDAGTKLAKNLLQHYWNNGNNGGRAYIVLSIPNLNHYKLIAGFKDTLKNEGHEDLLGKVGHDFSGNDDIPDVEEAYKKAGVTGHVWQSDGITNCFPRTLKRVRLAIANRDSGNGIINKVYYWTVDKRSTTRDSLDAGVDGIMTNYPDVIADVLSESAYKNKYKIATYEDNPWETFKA

| Binder | Kd [1] | Kd [2] |
| --- | --- | --- |
| B1 | 51.6 nM | 80.4 nM |
| B2 | 45.3 nM | 66.9 nM |
